Assay results from paper PMC6509359 (Molecular Cell, 2019).

Biological target: the molecule itself
Experiment: SEC-MALS; 100 μL of 1-2 mg/mL protein on Superdex 200 10/300, 0.5 mL/min, PBS + 2 mM DTT

Row | Protein | stoichiometry N
1 | Human USP25 (157-714) P521S F522E (domain or fragment, UniProt Q9UHP3 157-714, looked up, source: E. coli Rosetta2(DE3)pLacI, purified (HisTrap, 3C protease, Resource Q, size exclusion)) NPYDRKRQDKAPVGLKNVGNTCWFSAVIQSLFNLLEFRRLVLNYKPPSNAQDLPRNQKEHRNLPFMRELRYLFALLVGTKRKYVDPSRAVEILKDAFKSNDSQQQDVSEFTHKLLDWLEDAFQMKAEEETDEEKPKNPMVELFYGRFLAVGVLEGKKFENTEMFGQYPLQVNGFKDLHECLEAAMIEGEIESLHSENSGKSGQEHWFTELPPVLTFELSRFEFNQALGRPEKIHNKLEFPQVLYLDRYMHRNREITRIKREEIKRLKDYLTVLQQRLERYLSYGSGPKRFPLVDVLQYALEFASSKPVCTSPVDDIDASSPPSGSIPSQTLPSTTEQQGALSSELPSTSPSSVAAISSRSVIHKSETQSRIPPDLPMHPAPRHITEEELSVLESCLHRWRTEIENDTRDLQESISRIHRTIELMYSDKSMIQVPYRLHAVLVHEGQANAGHYWAYIFDHRESRWMKYNDIAVTKSSWEELVRDSFGGYRNASAYCLMYINDKAQFLIQEEFNKETGQPLVGIETLPPDLRDFVEEDNQRFEKELEEWDAQLAQKALQE | 2
2 | Human USP25 (157-714) F522A (domain or fragment, UniProt Q9UHP3 157-714, looked up, source: E. coli Rosetta2(DE3)pLacI, purified (HisTrap, 3C protease, Resource Q, size exclusion)) NPYDRKRQDKAPVGLKNVGNTCWFSAVIQSLFNLLEFRRLVLNYKPPSNAQDLPRNQKEHRNLPFMRELRYLFALLVGTKRKYVDPSRAVEILKDAFKSNDSQQQDVSEFTHKLLDWLEDAFQMKAEEETDEEKPKNPMVELFYGRFLAVGVLEGKKFENTEMFGQYPLQVNGFKDLHECLEAAMIEGEIESLHSENSGKSGQEHWFTELPPVLTFELSRFEFNQALGRPEKIHNKLEFPQVLYLDRYMHRNREITRIKREEIKRLKDYLTVLQQRLERYLSYGSGPKRFPLVDVLQYALEFASSKPVCTSPVDDIDASSPPSGSIPSQTLPSTTEQQGALSSELPSTSPSSVAAISSRSVIHKPATQSRIPPDLPMHPAPRHITEEELSVLESCLHRWRTEIENDTRDLQESISRIHRTIELMYSDKSMIQVPYRLHAVLVHEGQANAGHYWAYIFDHRESRWMKYNDIAVTKSSWEELVRDSFGGYRNASAYCLMYINDKAQFLIQEEFNKETGQPLVGIETLPPDLRDFVEEDNQRFEKELEEWDAQLAQKALQE | 2
3 | Human USP25 (157-714) Q524S (domain or fragment, UniProt Q9UHP3 157-714, looked up, source: E. coli Rosetta2(DE3)pLacI, purified (HisTrap, 3C protease, Resource Q, size exclusion)) NPYDRKRQDKAPVGLKNVGNTCWFSAVIQSLFNLLEFRRLVLNYKPPSNAQDLPRNQKEHRNLPFMRELRYLFALLVGTKRKYVDPSRAVEILKDAFKSNDSQQQDVSEFTHKLLDWLEDAFQMKAEEETDEEKPKNPMVELFYGRFLAVGVLEGKKFENTEMFGQYPLQVNGFKDLHECLEAAMIEGEIESLHSENSGKSGQEHWFTELPPVLTFELSRFEFNQALGRPEKIHNKLEFPQVLYLDRYMHRNREITRIKREEIKRLKDYLTVLQQRLERYLSYGSGPKRFPLVDVLQYALEFASSKPVCTSPVDDIDASSPPSGSIPSQTLPSTTEQQGALSSELPSTSPSSVAAISSRSVIHKPFTSSRIPPDLPMHPAPRHITEEELSVLESCLHRWRTEIENDTRDLQESISRIHRTIELMYSDKSMIQVPYRLHAVLVHEGQANAGHYWAYIFDHRESRWMKYNDIAVTKSSWEELVRDSFGGYRNASAYCLMYINDKAQFLIQEEFNKETGQPLVGIETLPPDLRDFVEEDNQRFEKELEEWDAQLAQKALQE | 2
4 | Human USP25 (157-714) F522L (domain or fragment, UniProt Q9UHP3 157-714, looked up, source: E. coli Rosetta2(DE3)pLacI, purified (HisTrap, 3C protease, Resource Q, size exclusion)) NPYDRKRQDKAPVGLKNVGNTCWFSAVIQSLFNLLEFRRLVLNYKPPSNAQDLPRNQKEHRNLPFMRELRYLFALLVGTKRKYVDPSRAVEILKDAFKSNDSQQQDVSEFTHKLLDWLEDAFQMKAEEETDEEKPKNPMVELFYGRFLAVGVLEGKKFENTEMFGQYPLQVNGFKDLHECLEAAMIEGEIESLHSENSGKSGQEHWFTELPPVLTFELSRFEFNQALGRPEKIHNKLEFPQVLYLDRYMHRNREITRIKREEIKRLKDYLTVLQQRLERYLSYGSGPKRFPLVDVLQYALEFASSKPVCTSPVDDIDASSPPSGSIPSQTLPSTTEQQGALSSELPSTSPSSVAAISSRSVIHKPLTQSRIPPDLPMHPAPRHITEEELSVLESCLHRWRTEIENDTRDLQESISRIHRTIELMYSDKSMIQVPYRLHAVLVHEGQANAGHYWAYIFDHRESRWMKYNDIAVTKSSWEELVRDSFGGYRNASAYCLMYINDKAQFLIQEEFNKETGQPLVGIETLPPDLRDFVEEDNQRFEKELEEWDAQLAQKALQE | 2
5 | Human USP25 (157-714) P521A (domain or fragment, UniProt Q9UHP3 157-714, looked up, source: E. coli Rosetta2(DE3)pLacI, purified (HisTrap, 3C protease, Resource Q, size exclusion)) NPYDRKRQDKAPVGLKNVGNTCWFSAVIQSLFNLLEFRRLVLNYKPPSNAQDLPRNQKEHRNLPFMRELRYLFALLVGTKRKYVDPSRAVEILKDAFKSNDSQQQDVSEFTHKLLDWLEDAFQMKAEEETDEEKPKNPMVELFYGRFLAVGVLEGKKFENTEMFGQYPLQVNGFKDLHECLEAAMIEGEIESLHSENSGKSGQEHWFTELPPVLTFELSRFEFNQALGRPEKIHNKLEFPQVLYLDRYMHRNREITRIKREEIKRLKDYLTVLQQRLERYLSYGSGPKRFPLVDVLQYALEFASSKPVCTSPVDDIDASSPPSGSIPSQTLPSTTEQQGALSSELPSTSPSSVAAISSRSVIHKAFTQSRIPPDLPMHPAPRHITEEELSVLESCLHRWRTEIENDTRDLQESISRIHRTIELMYSDKSMIQVPYRLHAVLVHEGQANAGHYWAYIFDHRESRWMKYNDIAVTKSSWEELVRDSFGGYRNASAYCLMYINDKAQFLIQEEFNKETGQPLVGIETLPPDLRDFVEEDNQRFEKELEEWDAQLAQKALQE | 2
6 | Chimera: Human USP28 (149-[AIM of Human USP25]-703) (domain or fragment) PNPNDWRRVDGWPVGLKNVGNTCWFSAVIQSLFQLPEFRRLVLSYSLPQNVLENCRSHTEKRNIMFMQELQYLFALMMGSNRKFVDPSAALDLLKGAFRSSEEQQQDVSEFTHKLLDWLEDAFQLAVNVNSPRNKSENPMVQLFYGTFLTEGVREGKPFCNNETFGQYPLQVNGYRNLDECLEGAMVEGDVELLPSDHSVKYGQERWFTKLPPVLTFELSRFEFNQSLGQPEKIHNKLEFPQIIYMDRYMYRSKELIRNKRECIRKLKEEIKILQQKLERYVKYGSGPARFPLPDMLKYVIEFASTKPASESCPPESDTHMTLPLSSVHCSVSDQTSKESTSTESSSQDVESTFSSPEDRSVIHKPFTQSRIPMEMPSQPAPRTVTDEEINFVKTCLQRWRSEIEQDIQDLKTCIASTTQTIEQMYCDPLLRQVPYRLHAVLVHEGQANAGHYWAYIYNQPRQSWLKYNDISVTESSWEEVERDSYGGLRNVSAYCLMYINDKLPYFNAEAAPTESDQMSEVEALSVELKHYIQEDNWRFEQEVEEWEEEQSCKI | 2
7 | Human USP28 (1-1077) (enzyme, UniProt Q96RU2 1-1077, looked up, USP28, human, residues 1-1077 (1,077 aa); also called full-length USP28; source: E. coli Rosetta2(DE3)pLacI, purified (HisTrap, 3C protease, Resource Q, size exclusion)) MTAELQQDDAAGAADGHGSSCQMLLNQLREITGIQDPSFLHEALKASNGDITQAVSLLTDERVKEPSQDTVATEPSEVEGSAANKEVLAKVIDLTHDNKDDLQAAIALSLLESPKIQADGRDLNRMHEATSAETKRSKRKRCEVWGENPNPNDWRRVDGWPVGLKNVGNTCWFSAVIQSLFQLPEFRRLVLSYSLPQNVLENCRSHTEKRNIMFMQELQYLFALMMGSNRKFVDPSAALDLLKGAFRSSEEQQQDVSEFTHKLLDWLEDAFQLAVNVNSPRNKSENPMVQLFYGTFLTEGVREGKPFCNNETFGQYPLQVNGYRNLDECLEGAMVEGDVELLPSDHSVKYGQERWFTKLPPVLTFELSRFEFNQSLGQPEKIHNKLEFPQIIYMDRYMYRSKELIRNKRECIRKLKEEIKILQQKLERYVKYGSGPARFPLPDMLKYVIEFASTKPASESCPPESDTHMTLPLSSVHCSVSDQTSKESTSTESSSQDVESTFSSPEDSLPKSKPLTSSRSSMEMPSQPAPRTVTDEEINFVKTCLQRWRSEIEQDIQDLKTCIASTTQTIEQMYCDPLLRQVPYRLHAVLVHEGQANAGHYWAYIYNQPRQSWLKYNDISVTESSWEEVERDSYGGLRNVSAYCLMYINDKLPYFNAEAAPTESDQMSEVEALSVELKHYIQEDNWRFEQEVEEWEEEQSCKIPQMESSTNSSSQDYSTSQEPSVASSHGVRCLSSEHAVIVKEQTAQAIANTARAYEKSGVEAALSEVMLSPAMQGVILAIAKARQTFDRDGSEAGLIKAFHEEYSRLYQLAKETPTSHSDPRLQHVLVYFFQNEAPKRVVERTLLEQFADKNLSYDERSISIMKVAQAKLKEIGPDDMNMEEYKKWHEDYSLFRKVSVYLLTGLELYQKGKYQEALSYLVYAYQSNAALLMKGPRRGVKESVIALYRRKCLLELNAKAASLFETNDDHSVTEGINVMNELIIPCIHLIINNDISKDDLDAIEVMRNHWCSYLGQDIAENLQLCLGEFLPRLLDPSAEIIVLKEPPTIRPNSPYDLCSRFAAVMESIQGVSTVTVK | 2
8 | Human USP28 (149-703) L415E I419E (domain or fragment, UniProt Q96RU2 149-703, looked up, also called variant with the insertion-destabilizing mutation; source: E. coli Rosetta2(DE3)pLacI, purified (HisTrap, 3C protease, Resource Q, size exclusion)) PNPNDWRRVDGWPVGLKNVGNTCWFSAVIQSLFQLPEFRRLVLSYSLPQNVLENCRSHTEKRNIMFMQELQYLFALMMGSNRKFVDPSAALDLLKGAFRSSEEQQQDVSEFTHKLLDWLEDAFQLAVNVNSPRNKSENPMVQLFYGTFLTEGVREGKPFCNNETFGQYPLQVNGYRNLDECLEGAMVEGDVELLPSDHSVKYGQERWFTKLPPVLTFELSRFEFNQSLGQPEKIHNKLEFPQIIYMDRYMYRSKELIRNKRECIRKEKEEEKILQQKLERYVKYGSGPARFPLPDMLKYVIEFASTKPASESCPPESDTHMTLPLSSVHCSVSDQTSKESTSTESSSQDVESTFSSPEDSLPKSKPLTSSRSSMEMPSQPAPRTVTDEEINFVKTCLQRWRSEIEQDIQDLKTCIASTTQTIEQMYCDPLLRQVPYRLHAVLVHEGQANAGHYWAYIYNQPRQSWLKYNDISVTESSWEEVERDSYGGLRNVSAYCLMYINDKLPYFNAEAAPTESDQMSEVEALSVELKHYIQEDNWRFEQEVEEWEEEQSCKI | 2
9 | Human USP28 (1-703) (domain or fragment, UniProt Q96RU2 1-703, looked up, USP28, human, residues 1-703; source: E. coli Rosetta2(DE3)pLacI, purified (HisTrap, 3C protease, Resource Q, size exclusion)) MTAELQQDDAAGAADGHGSSCQMLLNQLREITGIQDPSFLHEALKASNGDITQAVSLLTDERVKEPSQDTVATEPSEVEGSAANKEVLAKVIDLTHDNKDDLQAAIALSLLESPKIQADGRDLNRMHEATSAETKRSKRKRCEVWGENPNPNDWRRVDGWPVGLKNVGNTCWFSAVIQSLFQLPEFRRLVLSYSLPQNVLENCRSHTEKRNIMFMQELQYLFALMMGSNRKFVDPSAALDLLKGAFRSSEEQQQDVSEFTHKLLDWLEDAFQLAVNVNSPRNKSENPMVQLFYGTFLTEGVREGKPFCNNETFGQYPLQVNGYRNLDECLEGAMVEGDVELLPSDHSVKYGQERWFTKLPPVLTFELSRFEFNQSLGQPEKIHNKLEFPQIIYMDRYMYRSKELIRNKRECIRKLKEEIKILQQKLERYVKYGSGPARFPLPDMLKYVIEFASTKPASESCPPESDTHMTLPLSSVHCSVSDQTSKESTSTESSSQDVESTFSSPEDSLPKSKPLTSSRSSMEMPSQPAPRTVTDEEINFVKTCLQRWRSEIEQDIQDLKTCIASTTQTIEQMYCDPLLRQVPYRLHAVLVHEGQANAGHYWAYIYNQPRQSWLKYNDISVTESSWEEVERDSYGGLRNVSAYCLMYINDKLPYFNAEAAPTESDQMSEVEALSVELKHYIQEDNWRFEQEVEEWEEEQSCKI | 2
